Measurements from publication PMC9482650, “Quantitative fragmentomics allow affinity mapping of interactomes” (Nature Communications, 2022).

T1: APBA1_1, Q02410
T1 sequence (Q02410 651-752, limits assumed, looked up): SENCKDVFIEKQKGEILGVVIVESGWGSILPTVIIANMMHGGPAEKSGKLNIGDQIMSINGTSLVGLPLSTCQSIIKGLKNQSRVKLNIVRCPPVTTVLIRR

T2: APBA3_1, O96018
T2 sequence (O96018 389-490, limits assumed, looked up): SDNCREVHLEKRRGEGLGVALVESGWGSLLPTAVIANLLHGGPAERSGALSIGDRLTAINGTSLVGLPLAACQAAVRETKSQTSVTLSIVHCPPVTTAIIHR

T3: DFNB31_3, Q9P202
T3 sequence (Q9P202 811-907, limits assumed, looked up): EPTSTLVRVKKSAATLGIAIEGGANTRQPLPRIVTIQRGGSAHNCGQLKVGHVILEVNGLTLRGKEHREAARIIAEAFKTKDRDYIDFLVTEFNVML

T4: GRIP1_4, Q9Y3R0
T4 sequence (Q9Y3R0 467-571, limits assumed, looked up): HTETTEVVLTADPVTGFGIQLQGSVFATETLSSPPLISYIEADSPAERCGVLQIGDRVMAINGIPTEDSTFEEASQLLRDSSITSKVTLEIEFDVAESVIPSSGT

T5: LIN7B, Q9HAP6
T5 sequence (Q9HAP6 88-185, limits assumed, looked up): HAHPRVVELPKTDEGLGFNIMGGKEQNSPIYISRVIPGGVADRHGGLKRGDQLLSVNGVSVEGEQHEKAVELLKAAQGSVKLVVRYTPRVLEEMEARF

T6: LRRC7, Q96NW7
T6 sequence (Q96NW7 1440-1537, limits assumed, looked up): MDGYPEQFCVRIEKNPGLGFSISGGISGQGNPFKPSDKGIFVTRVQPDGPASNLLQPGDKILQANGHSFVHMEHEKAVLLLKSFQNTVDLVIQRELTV

T7: MPDZ_10, O75970
T7 sequence (O75970 1624-1722, limits assumed, looked up): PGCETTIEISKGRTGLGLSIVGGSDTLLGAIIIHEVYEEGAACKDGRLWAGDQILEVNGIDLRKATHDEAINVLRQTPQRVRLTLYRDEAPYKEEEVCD

T8: NHERF3_3, Q5T2W1
T8 sequence (Q5T2W1 238-333, limits assumed, looked up): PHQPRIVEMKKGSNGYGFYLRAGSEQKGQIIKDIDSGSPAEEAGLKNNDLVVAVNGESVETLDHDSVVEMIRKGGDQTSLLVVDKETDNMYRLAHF

T9: PDZD2_2, O15018
T9 sequence (O15018 329-429, limits assumed, looked up): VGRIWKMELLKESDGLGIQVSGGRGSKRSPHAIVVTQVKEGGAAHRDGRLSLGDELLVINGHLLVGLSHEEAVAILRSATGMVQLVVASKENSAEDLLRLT

T10: SIPA1L2, Q9P2F8
T10 sequence (Q9P2F8 945-1036, limits assumed, looked up): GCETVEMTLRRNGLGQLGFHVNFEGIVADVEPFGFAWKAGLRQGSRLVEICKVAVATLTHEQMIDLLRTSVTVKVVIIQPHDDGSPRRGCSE

T11: TIAM2, Q8IVF5
T11 sequence (Q8IVF5 885-986, limits assumed, looked up): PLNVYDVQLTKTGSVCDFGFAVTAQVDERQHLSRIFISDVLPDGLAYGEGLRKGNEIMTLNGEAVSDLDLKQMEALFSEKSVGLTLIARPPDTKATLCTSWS


Legend:
Assay in all cases: holdup assay
Design in all cases: key: below the threshold = too weak to quantify, mostly under pKd 3.1 to 4
Conditions in all cases: plain residues with an end cap or a label only (N-terminal biotin on a linker: ttds)
APBA1_1, Q02410 = target: T1, APBA1_1, Q02410
APBA3_1, O96018 = target: T2, APBA3_1, O96018
CASK, O14936 = target: CASK, O14936
CASK, O14936, sequence (O14936 487-570): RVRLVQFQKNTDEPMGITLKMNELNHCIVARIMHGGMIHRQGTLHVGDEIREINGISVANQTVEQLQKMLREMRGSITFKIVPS

DFNB31_3, Q9P202 = target: T3, DFNB31_3, Q9P202
DLG1_3, Q12959 = target: DLG1_3, Q12959
DLG1_3, Q12959, sequence (Q12959 457-571): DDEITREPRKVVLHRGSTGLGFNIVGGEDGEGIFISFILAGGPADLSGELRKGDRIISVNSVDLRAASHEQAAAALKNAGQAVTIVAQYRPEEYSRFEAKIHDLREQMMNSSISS

DLG4_2, P78352 = target: DLG4_2, P78352
DLG4_2, P78352, sequence (P78352 155-259): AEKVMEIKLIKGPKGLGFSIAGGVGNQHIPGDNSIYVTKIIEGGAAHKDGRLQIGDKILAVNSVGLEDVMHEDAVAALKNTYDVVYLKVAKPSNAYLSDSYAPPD

FRMPD4, Q14CM0 = target: FRMPD4, Q14CM0
FRMPD4, Q14CM0, sequence (Q14CM0 67-160): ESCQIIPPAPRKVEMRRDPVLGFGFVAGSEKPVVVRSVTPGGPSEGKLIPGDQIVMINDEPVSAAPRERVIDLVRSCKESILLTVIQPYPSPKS

GOPC, Q9HD26 = target: GOPC, Q9HD26
GRIP1_4, Q9Y3R0 = target: T4, GRIP1_4, Q9Y3R0
GRIP2_6, Q9C0E4 = target: GRIP2_6, Q9C0E4
GRIP2_6, Q9C0E4, sequence (Q9C0E4 648-740): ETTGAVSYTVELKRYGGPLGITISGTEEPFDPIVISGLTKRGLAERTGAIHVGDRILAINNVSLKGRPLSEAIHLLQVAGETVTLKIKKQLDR

HTRA2, O43464 = target: HTRA2, O43464
HTRA2, O43464, sequence (O43464 355-458): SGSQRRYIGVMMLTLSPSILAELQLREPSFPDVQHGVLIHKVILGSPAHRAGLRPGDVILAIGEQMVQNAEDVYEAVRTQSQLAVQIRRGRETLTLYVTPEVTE

IL16_4, Q14005 = target: IL16_4, Q14005
IL16_4, Q14005, sequence (Q14005 1229-1329): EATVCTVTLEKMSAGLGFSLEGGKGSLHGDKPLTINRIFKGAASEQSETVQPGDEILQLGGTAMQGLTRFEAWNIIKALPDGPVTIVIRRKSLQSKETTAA

Inadl_1, Q8NI35 = target: Inadl_1, Q8NI35
Inadl_1, Q8NI35, sequence (Q8NI35 113-229): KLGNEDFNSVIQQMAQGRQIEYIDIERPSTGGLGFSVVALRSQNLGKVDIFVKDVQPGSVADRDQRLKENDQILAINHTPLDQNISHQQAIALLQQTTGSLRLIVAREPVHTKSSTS

Inadl_6, Q8NI35 = target: Inadl_6, Q8NI35
Inadl_6, Q8NI35, sequence (Q8NI35 1058-1167): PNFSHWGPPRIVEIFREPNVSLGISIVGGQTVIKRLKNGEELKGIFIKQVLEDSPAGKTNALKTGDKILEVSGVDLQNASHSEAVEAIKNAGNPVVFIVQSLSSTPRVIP

LIN7B, Q9HAP6 = target: T5, LIN7B, Q9HAP6
LRRC7, Q96NW7 = target: T6, LRRC7, Q96NW7
MAST2, Q6P0Q8 = target: MAST2, Q6P0Q8
MAST2, Q6P0Q8, sequence (Q6P0Q8 1099-1202): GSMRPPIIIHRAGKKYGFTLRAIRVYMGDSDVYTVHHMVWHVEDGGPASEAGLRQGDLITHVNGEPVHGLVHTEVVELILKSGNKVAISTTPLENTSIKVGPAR

MPDZ_10, O75970 = target: T7, MPDZ_10, O75970
NHERF3_3, Q5T2W1 = target: T8, NHERF3_3, Q5T2W1
NHERF4_4, Q86UT5 = target: NHERF4_4, Q86UT5
NHERF4_4, Q86UT5, sequence (Q86UT5 464-550): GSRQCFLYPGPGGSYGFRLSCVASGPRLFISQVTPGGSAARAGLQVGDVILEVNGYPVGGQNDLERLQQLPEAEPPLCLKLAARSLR

PDLIM1, O00151 = target: PDLIM1, O00151
PDLIM1, O00151, sequence (O00151 1-87): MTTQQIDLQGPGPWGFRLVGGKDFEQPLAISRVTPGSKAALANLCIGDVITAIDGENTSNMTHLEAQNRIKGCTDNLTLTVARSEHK

PDZD2_2, O15018 = target: T9, PDZD2_2, O15018
PDZRN4_1, Q6ZMN7 = target: PDZRN4_1, Q6ZMN7
PDZRN4_1, Q6ZMN7, sequence (Q6ZMN7 213-318): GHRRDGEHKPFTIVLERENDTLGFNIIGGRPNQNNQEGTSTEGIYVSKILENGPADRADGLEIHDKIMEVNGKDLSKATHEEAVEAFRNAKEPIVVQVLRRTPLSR

SIPA1L2, Q9P2F8 = target: T10, SIPA1L2, Q9P2F8
TIAM2, Q8IVF5 = target: T11, TIAM2, Q8IVF5
TJP1_3, Q07157 = target: TJP1_3, Q07157
TJP1_3, Q07157, sequence (Q07157 416-512): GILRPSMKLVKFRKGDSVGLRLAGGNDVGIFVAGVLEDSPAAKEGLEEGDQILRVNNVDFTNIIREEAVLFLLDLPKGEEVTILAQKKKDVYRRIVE

Row | Binder | pKd (APBA1_1, Q02410) | pKd (APBA3_1, O96018) | pKd (CASK, O14936) | pKd (DFNB31_3, Q9P202) | pKd (DLG1_3, Q12959) | pKd (DLG4_2, P78352) | pKd (FRMPD4, Q14CM0) | pKd (GOPC, Q9HD26) | pKd (GRIP1_4, Q9Y3R0) | pKd (GRIP2_6, Q9C0E4) | pKd (HTRA2, O43464) | pKd (IL16_4, Q14005) | pKd (Inadl_1, Q8NI35) | pKd (Inadl_6, Q8NI35) | pKd (LIN7B, Q9HAP6) | pKd (LRRC7, Q96NW7) | pKd (MAST2, Q6P0Q8) | pKd (MPDZ_10, O75970) | pKd (NHERF3_3, Q5T2W1) | pKd (NHERF4_4, Q86UT5) | other results
1 | QRPYRRESEI [KCNJ12, Q14500] | below the threshold | below the threshold | below the threshold | below the threshold | 4.08 | 4.56 | below the threshold | below the threshold | below the threshold | below the threshold | below the threshold | below the threshold | below the threshold | below the threshold | below the threshold | below the threshold | 4.42 | below the threshold | below the threshold | below the threshold | pKd (PDLIM1, O00151): below the threshold; pKd (PDZD2_2, O15018): 4.26; pKd (PDZRN4_1, Q6ZMN7): 4.18; pKd (SIPA1L2, Q9P2F8): below the threshold; pKd (TIAM2, Q8IVF5): below the threshold; pKd (TJP1_3, Q07157): below the threshold
2 | GRLLGLETNV [ARHGEF26, Q96DR7] | below the threshold | below the threshold | below the threshold | below the threshold | 4.92 | 4.85 | below the threshold | below the threshold | below the threshold | below the threshold | below the threshold | below the threshold | below the threshold | below the threshold | below the threshold | below the threshold | 5.35 | below the threshold | below the threshold | below the threshold | pKd (PDLIM1, O00151): below the threshold; pKd (PDZD2_2, O15018): 4.12; pKd (PDZRN4_1, Q6ZMN7): 3.48; pKd (SIPA1L2, Q9P2F8): below the threshold; pKd (TIAM2, Q8IVF5): below the threshold; pKd (TJP1_3, Q07157): below the threshold
